# Reference: patent US20260242478A1 (published 2026)
# Where no end group is shown, it is not given here.
# B1: Phage-125 (peptide)
# peptide: MDWCPVSLWHVCFY
# notes: tested as crude clonal phage supernatant
# B2: Phage-136 (peptide)
# peptide: MHWCPIYLWDECFN
# notes: as for B1
# B3: Phage-124 (peptide)
# peptide: MDWCPRPLWDMCFF
# notes: as for B1
# B4: Phage-137 (peptide)
# peptide: MDWCPRYLWHECFH
# notes: as for B1
# B5: Phage-131 (peptide)
# peptide: MDWCPRSLWIYCFN
# notes: as for B1
# B6: Phage-120 (peptide)
# peptide: MDWCPRDLWHACFS
# notes: as for B1
# B7: Phage-127 (peptide)
# peptide: MDWCPRALWNECFA
# notes: as for B1
# B8: Phage-141 (peptide)
# peptide: MDWCPRSLWNVCFF
# notes: as for B1
# B9: Phage-142 (peptide)
# peptide: MDWCPVILWDFCFN
# notes: tested as crude clonal phage supernatant; also called position 11 is F in the position column
# B10: Phage-123 (peptide)
# peptide: MDWCPIHLWNECFA
# notes: as for B1
# B11: Phage-118 (peptide)
# peptide: MDWCPRHLWDECFF
# notes: as for B1
# B12: Phage-133 (peptide)
# peptide: MDWCPRFLWDECFF
# notes: tested as crude clonal phage supernatant; also called position 7 is F in the position column
# B13: Phage-80, clonal phage peptide MDWCPMYLWNECFS (peptide)
# peptide: MDWCPMYLWNECFS
# notes: tested as crude clonal phage supernatant; not shown: pIII of the bacteriophage to which the peptide is fused
# B14: Phage-147 (peptide, not shown: large carriers)
# peptide: MHWCPRDLWVVCFN
# modifications: cysteine pairing not given here; also: fused to phage pIII protein, pIII and linker sequence not given here
# notes: Clonal phage of the Peptide-9 library
# B15: Phage-135 (peptide)
# peptide: MDWCPKFLWHECFS
# notes: as for B12
# B16: Phage-169 (peptide, not shown: large carriers)
# peptide: MDWCPRDLWNVCFN
# modifications: cysteine pairing not given here; also: displayed as fusion to phage pIII, linker and pIII sequence not given here
# notes: as for B14
# B17: Phage-144 (peptide)
# peptide: MDWCPRHLWYACFN
# notes: as for B1
# B18: Phage-134 (peptide)
# peptide: MDWCPSYLWHECFA
# notes: as for B1
# B19: Phage-140 (peptide)
# peptide: MDWCPMDLWDVCFN
# notes: as for B1
# B20: Phage-139 (peptide)
# peptide: MDWCPRDLWDVCFA
# notes: as for B1
# B21: Phage-130 (peptide)
# peptide: MDWCPRYLWDACFF
# notes: as for B1
# B22: Phage-143 (peptide)
# peptide: LDWCPLNLWDLCYF
# notes: as for B1
# B23: Phage-126 (peptide)
# peptide: MDWCPRFLWNECFN
# notes: as for B1
# B24: Phage-146 (peptide, not shown: large carriers)
# peptide: MDWCPRHLWSECFY
# modifications: cysteine pairing not given here; also: fused to phage pIII protein, pIII and linker sequence not given here
# notes: as for B14
# B25: Phage-145 (peptide, not shown: large carriers)
# peptide: MDWCPKHLWIECFA
# modifications: cysteine pairing not given here; also: fused to phage pIII protein, pIII and linker sequence not given here
# notes: as for B14
# B26: Phage-122 (peptide)
# peptide: MDWCPRDLWDQCYA
# notes: as for B1
# B27: Phage-129 (peptide)
# peptide: MDWCPSYLWTVCFA
# notes: as for B1
# B28: Phage-138 (peptide)
# peptide: MDWCPTNLWHECFA
# notes: as for B1
# B29: Phage-119 (peptide)
# peptide: MDWCPRYLWHMCYS
# notes: as for B1
# B30: Phage-128 (peptide)
# peptide: MDWCPRDLWIECFF
# notes: as for B1
# B31: Phage-81, clonal phage peptide … (peptide)
# peptide: MDWCPRFLWSVCFN
# notes: as for B13
# B32: Phage-121 (peptide)
# peptide: MDWCPRDLWHVCFF
# notes: as for B1
# B33: Phage-132 (peptide)
# peptide: MDWCPTYLWFECFN
# notes: as for B1
# B34: Phage-148 (peptide, not shown: large carriers)
# peptide: MHWCPEYLWNECFA
# modifications: cysteine pairing not given here; also: displayed as fusion to phage pIII, linker and pIII sequence not given here
# notes: as for B14
# What was measured:
# [1] = target: T1, Anti-CD28 scFv (VH - linker 1 - VL) (biotinylated (site not stated)); assay: clonal phage ELISA on biotinylated anti-CD28 scFv captured on neutravidin plates, anti-M13 HRP detection;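 further: crude phage supernatants were used, and before phage were added the wells were pretreated with blocking buffer, either alone or with soluble CD28 protein, without washing in between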
# T1 sequence (scFv, as listed by the source): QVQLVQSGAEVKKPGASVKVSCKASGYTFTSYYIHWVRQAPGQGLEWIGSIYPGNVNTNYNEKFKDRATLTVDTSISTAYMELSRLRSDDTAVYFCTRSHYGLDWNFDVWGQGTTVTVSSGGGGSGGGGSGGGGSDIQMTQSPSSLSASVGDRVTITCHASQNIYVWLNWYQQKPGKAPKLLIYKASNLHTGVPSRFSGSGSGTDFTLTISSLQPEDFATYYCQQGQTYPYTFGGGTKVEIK
# [2] = target: T1, Anti-CD28 scFv (VH - linker 1 - VL); assay: clonal phage ELISA on captured anti-CD28 scFv, wells pre-incubated with soluble CD28 as competitor;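 further: crude phage supernatants used, bound phage read out via HRP-linked anti-M13 antibody, with comparison wells given blocking buffer lacking soluble CD28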
# Experimental: (§1) Clonal phage were harvested as crude supernatants and screened via standard enzyme linked immunosorbent assays (ELISAs). […] Prior to the addition of clonal phage, wells were incubated with blocking buffer and CD28 soluble protein or blocking buffer alone. Without washing or aspirating, clonal phage supernatants were then added to the wells and incubated for a short time. Wells were then washed followed by detection of bound phage using a horse radish peroxidase conjugated anti-M13 antibody.
# [3] = target: anti-CD28 scFv (VH - linker 1 - VL) (biotinylated (site not given)); assay: phage ELISA as before, wells pre-incubated with soluble CD28 (competitor)
# Sequence of anti-CD28 scFv (VH - linker 1 - VL) (biotinylated (site not given)) (scFv, as listed by the source): as above
# [4] = target: T2, anti-CD28 scFv (VH - linker 1 - VL) (biotinylated (site not stated)); assay: phage ELISA as above, wells pre-incubated with soluble CD28 (competitor);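 further: ELISA of crude clonal phage supernatants added to wells pre-treated with soluble CD28 in blocking buffer, bound phage read out with HRP-conjugated anti-M13 antibody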
# T2 sequence (scFv, as listed by the source): as above
# [5] = target: T2, anti-CD28 scFv (VH - linker 1 - VL); assay: phage ELISA; biotinylated anti-CD28 scFv on neutravidin plate, clonal phage supernatant, anti-M13-HRP detection;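 further: before phage addition, wells were pretreated with soluble CD28 protein in blocking buffer, or with blocking buffer only as the comparison, then phage were added without washing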
# Experimental: as §1
binder,measurement,setting,value
B1,CD28 scFv signal,[1],2.4
same,CD28 scFv signal in presence of CD28,[2],0.409
B2,CD28 scFv signal,[1],2.23
same,CD28 scFv signal in presence of CD28,[2],0.193
B3,CD28 scFv signal,[1],2.4
same,CD28 scFv signal in presence of CD28,[2],0.138
B4,CD28 scFv signal,[1],2.19
same,CD28 scFv signal in presence of CD28,[2],0.308
B5,CD28 scFv signal,[1],2.34
same,CD28 scFv signal in presence of CD28,[2],0.401
B6,CD28 scFv signal,[1],2.41
same,CD28 scFv signal in presence of CD28,[2],0.173
B7,CD28 scFv signal,[1],2.38
same,CD28 scFv signal in presence of CD28,[2],0.375
B8,CD28 scFv signal,[1],2.13
same,CD28 scFv signal in presence of CD28,[2],0.356
B9,CD28 scFv signal,[1],2.03
same,CD28 scFv signal in presence of CD28,[2],0.173
B10,CD28 scFv signal,[1],2.4
same,CD28 scFv signal in presence of CD28,[2],0.203
B11,CD28 scFv signal,[1],2.46
same,CD28 scFv signal in presence of CD28,[2],0.663
B12,CD28 scFv signal,[1],2.28
same,CD28 scFv signal in presence of CD28,[2],0.246
B13,CD28 scFv signal in presence of CD28,[3],0.411
B14,CD28 scFv signal in presence of CD28,[4],0.112
same,CD28 scFv signal,[5],1.83
B15,CD28 scFv signal,[1],2.28
same,CD28 scFv signal in presence of CD28,[2],0.142
"MDWCPRDLWNVCFA (peptide, not shown: large carriers, Clonal phage of the Peptide-9 library) [Phage-154]",CD28 scFv signal in presence of CD28,[4],0.145
same,CD28 scFv signal,[5],1.38
"MDWCPRDLWAVCFA (peptide, not shown: large carriers, Clonal phage of the Peptide-9 library) [Phage-149]",CD28 scFv signal in presence of CD28,[4],0.089
same,CD28 scFv signal,[5],1.67
B16,CD28 scFv signal in presence of CD28,[4],0.108
same,CD28 scFv signal,[5],0.74
B17,CD28 scFv signal,[1],2.01
same,CD28 scFv signal in presence of CD28,[2],0.159
B18,CD28 scFv signal,[1],2.28
same,CD28 scFv signal in presence of CD28,[2],0.198
B19,CD28 scFv signal,[1],2.15
same,CD28 scFv signal in presence of CD28,[2],0.263
B20,CD28 scFv signal,[1],2.16
same,CD28 scFv signal in presence of CD28,[2],0.28
B21,CD28 scFv signal,[1],2.34
same,CD28 scFv signal in presence of CD28,[2],0.168
B22,CD28 scFv signal,[1],2.03
same,CD28 scFv signal in presence of CD28,[2],0.095
B23,CD28 scFv signal,[1],2.4
same,CD28 scFv signal in presence of CD28,[2],0.503
B24,CD28 scFv signal in presence of CD28,[4],0.199
same,CD28 scFv signal,[5],1.92
B25,CD28 scFv signal in presence of CD28,[4],0.132
same,CD28 scFv signal,[5],1.98
B26,CD28 scFv signal,[1],2.41
same,CD28 scFv signal in presence of CD28,[2],0.201
B27,CD28 scFv signal,[1],2.34
same,CD28 scFv signal in presence of CD28,[2],0.096
B28,CD28 scFv signal,[1],2.16
same,CD28 scFv signal in presence of CD28,[2],0.096
B29,CD28 scFv signal,[1],2.42
same,CD28 scFv signal in presence of CD28,[2],1.17
"MDWCPRHLWNVCFS (peptide, not shown: large carriers, Clonal phage of the Peptide-9 library) [Phage-150]",CD28 scFv signal in presence of CD28,[4],0.176
same,CD28 scFv signal,[5],1.61
B30,CD28 scFv signal,[1],2.37
same,CD28 scFv signal in presence of CD28,[2],0.137
B31,CD28 scFv signal in presence of CD28,[3],1.15
B32,CD28 scFv signal,[1],2.41
same,CD28 scFv signal in presence of CD28,[2],0.268
B33,CD28 scFv signal,[1],2.33
same,CD28 scFv signal in presence of CD28,[2],0.224
B34,CD28 scFv signal in presence of CD28,[4],0.092
same,CD28 scFv signal,[5],1.69
